Values joined by “and” are separate entries in the source; they are usually repeats but may differ in a detail not shown here. Identical values can stand only once.
Experiments:
[1] = target: purified human placental alkaline phosphatase (hPLAP, SIGMA) (human) (UniProt P05187); assay: ELISA, plate coated with purified hPLAP; mAb 64 ng/ml in PBS, diluted 1:8; anti-mouse-HRP, TMB
[2] = target: purified human placental alkaline phosphatase (hPLAP, SIGMA) (human) (UniProt P05187); assay: ELISA, plate coated with purified hPLAP; mAb 64 ng/ml in PBS, diluted 1:4; anti-mouse-HRP, TMB
[3] = target: purified human placental alkaline phosphatase (hPLAP, SIGMA) (human) (UniProt P05187); assay: ELISA, plate coated with purified hPLAP; mAb 64 ng/ml in PBS, diluted 1:64; anti-mouse-HRP, TMB
[4] = target: purified human placental alkaline phosphatase (hPLAP, SIGMA) (human) (UniProt P05187); assay: ELISA, plate coated with purified hPLAP; mAb 64 ng/ml in PBS, undiluted; anti-mouse-HRP, TMB
[5] = target: purified human placental alkaline phosphatase (hPLAP, SIGMA) (human) (UniProt P05187); assay: ELISA, plate coated with purified hPLAP; mAb 64 ng/ml in PBS, diluted 1:32; anti-mouse-HRP, TMB
[6] = target: purified human placental alkaline phosphatase (hPLAP, SIGMA) (human) (UniProt P05187); assay: ELISA, plate coated with purified hPLAP; mAb 64 ng/ml spiked in negative serum, diluted 1:4; anti-mouse-HRP, TMB
[7] = target: purified human placental alkaline phosphatase (hPLAP, SIGMA) (human) (UniProt P05187); assay: ELISA, plate coated with purified hPLAP; row labelled '0' (not explained, presumably no sample, blank); anti-mouse-HRP, TMB
[8] = target: purified human placental alkaline phosphatase (hPLAP, SIGMA) (human) (UniProt P05187); assay: ELISA, plate coated with purified hPLAP; mAb 64 ng/ml spiked in negative serum, diluted 1:64; anti-mouse-HRP, TMB
[9] = target: purified human placental alkaline phosphatase (hPLAP, SIGMA) (human) (UniProt P05187); assay: ELISA, plate coated with purified hPLAP; mAb 64 ng/ml in PBS, diluted 1:16; anti-mouse-HRP, TMB
[10] = target: purified human placental alkaline phosphatase (hPLAP, SIGMA) (human) (UniProt P05187); assay: ELISA, plate coated with purified hPLAP; mAb 64 ng/ml spiked in negative serum, undiluted; anti-mouse-HRP, TMB
[11] = target: purified human placental alkaline phosphatase (hPLAP, SIGMA) (human) (UniProt P05187); assay: ELISA, plate coated with purified hPLAP; mAb 64 ng/ml in PBS, diluted 1:2; anti-mouse-HRP, TMB
[12] = target: purified human placental alkaline phosphatase (hPLAP, SIGMA) (human) (UniProt P05187); assay: ELISA, plate coated with purified hPLAP; mAb 64 ng/ml spiked in negative serum, diluted 1:32; anti-mouse-HRP, TMB
[13] = target: purified human placental alkaline phosphatase (hPLAP, SIGMA) (human) (UniProt P05187); assay: ELISA, plate coated with purified hPLAP; mAb 64 ng/ml spiked in negative serum, diluted 1:8; anti-mouse-HRP, TMB
[14] = target: purified human placental alkaline phosphatase (hPLAP, SIGMA) (human) (UniProt P05187); assay: ELISA, plate coated with purified hPLAP; mAb 64 ng/ml spiked in negative serum, diluted 1:16; anti-mouse-HRP, TMB
[15] = target: purified human placental alkaline phosphatase (hPLAP, SIGMA) (human) (UniProt P05187); assay: ELISA, plate coated with purified hPLAP; mAb 64 ng/ml spiked in negative serum, diluted 1:2; anti-mouse-HRP, TMB

UniProt P05187, sequence (P05187 23-506 limits assumed): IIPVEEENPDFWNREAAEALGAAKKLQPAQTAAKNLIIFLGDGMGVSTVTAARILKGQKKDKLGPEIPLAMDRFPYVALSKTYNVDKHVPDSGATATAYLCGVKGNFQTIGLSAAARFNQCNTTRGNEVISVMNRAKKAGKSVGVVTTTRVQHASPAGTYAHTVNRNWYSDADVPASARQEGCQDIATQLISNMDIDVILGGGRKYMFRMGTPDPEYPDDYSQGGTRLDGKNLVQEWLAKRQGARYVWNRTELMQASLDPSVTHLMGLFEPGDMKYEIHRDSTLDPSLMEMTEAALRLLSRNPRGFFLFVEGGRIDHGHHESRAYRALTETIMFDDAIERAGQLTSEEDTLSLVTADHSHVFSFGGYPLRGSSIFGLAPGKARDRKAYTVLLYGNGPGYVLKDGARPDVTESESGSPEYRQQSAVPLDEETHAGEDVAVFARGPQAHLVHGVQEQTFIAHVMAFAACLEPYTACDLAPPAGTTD

Substance	absorbance at 450 nm [1] [absorbance]	absorbance at 450 nm [2] [absorbance]	absorbance at 450 nm [3] [absorbance]	absorbance at 450 nm [4] [absorbance]	absorbance at 450 nm [5] [absorbance]	absorbance at 450 nm [6] [absorbance]	absorbance at 450 nm [7]	absorbance at 450 nm [8] [absorbance]	absorbance at 450 nm [9] [absorbance]	absorbance at 450 nm [10] [absorbance]	absorbance at 450 nm [11] [absorbance]	absorbance at 450 nm [12] [absorbance]	absorbance at 450 nm [13] [absorbance]	absorbance at 450 nm [14] [absorbance]	absorbance at 450 nm [15] [absorbance]
mouse monoclonal antibody to PLAP (clone 8B6, Sigma Immunochemicals)	0.282	0.424	0.047	0.486	0.091	0.341	0.007 absorbance and 0.009 absorbance	0.042	0.169	0.546	0.487	0.071	0.209	0.123	0.439
serum of mice injected with saline (negative control serum)	–	–	–	–	–	–	0.005 absorbance	–	–	–	–	–	–	–	–
